Assay [1] addresses HLA-A*02:02. Nature of the assay: IEDB peptide-MHC binding, purified MHC/competitive/radioactivity; ≥ and ≤ were set here for values at or beyond the usual limits of such assays.
Assay [2] addresses HLA-A*02:03. The description is as above.
For assay [3], the target named is HLA-A*02:06. The description is as above.
The target in assay [4] is HLA-A*68:02. The experiment in a line: IEDB peptide-MHC binding, cellular MHC/competitive/fluorescence; ≥ and ≤ were set here for values at or beyond the usual limits of such assays.
The target of assay [5] is HLA-A*02:01. Nature of the assay: IEDB peptide-MHC binding, purified MHC/competitive/radioactivity; ≥ and ≤ were set here for values at or beyond the usual limits of such assays.
For assay [6], the target named is HLA-A*02:01. Nature of the assay: IEDB peptide-MHC binding, cellular MHC/competitive/fluorescence; ≥ and ≤ were set here for values at or beyond the usual limits of such assays. The conditions noted are these: source organism: Influenza A virus.
Setting [7] is: source organism: Vaccinia virus WR.
The mark [8] stands for this setting: source organism: Mammarenavirus choriomeningitidis.
Where [9] appears, read: source organism: Mammarenavirus brazilense.
Where [10] appears, read: source organism: Hepacivirus hominis.
Setting [11] is: source organism: Influenza A virus.

Where only a bound is given, the exact number is not on record here.

For the sequence ALCKVTVPT, the half-inhibitory concentration (IC50) in assay [1] (setting [7]) was 110 nM; in assay [2] (setting [7]), 130 nM; in assay [3] (setting [7]) it was 210 nM; in assay [4] (setting [7]) it was at least 70000 nM.
LSAEELMSL: the IC50 in assay [1] (setting [8]) was determined as 65 nM; in assay [2] (setting [8]), 706 nM; in assay [3] (setting [8]), 66 nM; in assay [5] (setting [8]), 2210 nM; in assay [4] (setting [8]) it was 5820 nM.
On to QVLQQNNSFI, for which the IC50 in assay [1] (setting [7]) is 544 nM; in assay [2] (setting [7]) it was 3180 nM; in assay [3] (setting [7]) it was 2320 nM; in assay [5] (setting [7]), 1470 nM; in assay [4] (setting [7]) it was 9960 nM.
For IIGEPIIVA the same measures were 2320 nM, 4780 nM, 1350 nM, 1440 nM and 6390 nM.
On to KLYGYASLT, for which the IC50 in assay [1] (setting [7]) was 76 nM; in assay [2] (setting [7]), 22 nM; in assay [3] (setting [7]), 1990 nM; in assay [5] (setting [7]), 326 nM; in assay [4] (setting [7]), 11000 nM.
In the same order, the values of SALMTLDDL are 411 nM, 707 nM, 100 nM, 1100 nM and 6940 nM.
For KIIAVFDSKL the same measures were 25 nM, 57 nM, 59 nM, 978 nM and 31700 nM.
As to YNYSLSAAV, the IC50 in assay [1] (setting [9]) was 79 nM; in assay [2] (setting [9]), 67 nM; in assay [3] (setting [9]), 88 nM; in assay [5] (setting [9]), 539 nM; in assay [4] (setting [9]) it was at least 70000 nM.
WLKDSAIMVA: the IC50 in assay [1] (setting [7]) was found to be 15 nM; in assay [2] (setting [7]) it was 1320 nM; in assay [3] (setting [7]), 4840 nM; in assay [5] (setting [7]), 673 nM; in assay [4] (setting [7]) it was 10100 nM.
In the case of AMWLLLLSI, the half-maximal inhibitory concentration (IC50) in assay [1] (source organism: SARS-CoV1) turned out to be 357 nM; in assay [2] (source organism: SARS-CoV1), 205 nM; in assay [3] (source organism: SARS-CoV1), 268 nM; in assay [4] (source organism: SARS-CoV1) it was 27700 nM.
For RLLDLSSWFT, the IC50 turned out to be 303 nM in assay [1] (setting [10]); 316 nM in assay [2] (setting [10]); 82 nM in assay [3] (setting [10]); 20 nM in assay [5] (setting [10]); 11100 nM in assay [4] (setting [10]).
For MLVNGDDLVV the same measures were 54 nM, 104 nM, 186 nM, 56 nM and 8980 nM.
As to MMMNWSPTT, the IC50 in assay [1] (setting [10]) stood at 311 nM; in assay [2] (setting [10]) it was 106 nM; in assay [3] (setting [10]) it was 1230 nM; in assay [4] (setting [10]), 17900 nM.
In the case of GLIYNRMGA, the IC50 in assay [4] (setting [11]) was at least 70000 nM; in assay [6] it was 16700 nM.
For the sequence LLGCIITSL, the IC50 in assay [1] (setting [10]) is 79 nM; in assay [2] (setting [10]), 121 nM; in assay [3] (setting [10]) it was 3130 nM; in assay [4] (setting [10]), at least 70000 nM.
In the case of LMYKGLPWNV, the half-maximal inhibitory concentration (IC50) in assay [1] (source organism: SARS-CoV1) amounted to 1.8 nM; in assay [2] (source organism: SARS-CoV1), 5.3 nM; in assay [3] (source organism: SARS-CoV1) it was 37 nM; in assay [4] (source organism: SARS-CoV1), 5400 nM.
For the sequence GLISLILQI, the IC50 in assay [1] (setting [11]) was determined as 27 nM; in assay [2] (setting [11]), 5.4 nM; in assay [3] (setting [11]) it was 205 nM; in assay [4] (setting [11]) it was 12400 nM.
For AMDSNTLEL the same measures were 254 nM, 524 nM, 1950 nM and at least 70000 nM.
On to VLPFDIKYI, for which the IC50 in assay [1] (setting [7]) came out at 135 nM; in assay [2] (setting [7]) it was 9.7 nM; in assay [3] (setting [7]), 506 nM; in assay [4] (setting [7]), 9870 nM.
Take RLIDFLKDV: the 50% inhibitory concentration (IC50) in assay [1] (setting [11]) was found to be 16 nM; in assay [2] (setting [11]), 7.3 nM; in assay [3] (setting [11]), 65 nM; in assay [4] (setting [11]), 31500 nM.

Broadly, the IC50 is the concentration needed to halve the response being measured.

The values are drawn from the Immune Epitope Database (IEDB).
